# Source: PMC9771723 (iScience, 2022)
# Target: the molecule itself
# Test: cross-linking
protein,measurement,value
MSLLTEVETPIRNEWGCRCNDSSDPLVVAASIIGILHLILWILDRL (domain or fragment) [M2(1-46) of influenza A/Hong Kong/8/68 (H3N2) in nanodiscs],stoichiometry N,4
